# B1: 40 bp S1/S2 duplex (dsDNA)
# DNA 1: ACCGAATTCTGACTTGCTAGGACATCTTTGCCCACGTTGA
# DNA 2: TCAACGTGGGCAAAGATGTCCTAGCAAGTCAGAATTCGGT
# Experiments:
# EcoRI = conditions: CITED F17; cited from earlier work
# EcoRI E111Q E111Q = conditions: CITED F17; cited from earlier work
# [1] = system: RNA polymerase holoenzyme (Escherichia coli); conditions: CITED; cited from earlier work
# LacI = LacI (UniProt P03023); conditions: CITED F24; cited from earlier work
# Mlh1-Pms1 = Mlh1-Pms1 (Saccharomyces cerevisiae, UniProt P38920;P14242 P38920:1-769,P14242:1-873); assay: EMSA; 25 mM Hepes pH 7.6, 50 mM NaCl, RT; QD/antibody labelling did not disrupt binding; conditions: tags: FLAG inserted after T448 or Y499 of Mlh1 and/or HA after D565 of Pms1, anti-tag quantum dots; chain copies: heterodimer (stated); label: 5'-32P
# Chain of Mlh1-Pms1 (P38920 whole entry, chain 1 of 2): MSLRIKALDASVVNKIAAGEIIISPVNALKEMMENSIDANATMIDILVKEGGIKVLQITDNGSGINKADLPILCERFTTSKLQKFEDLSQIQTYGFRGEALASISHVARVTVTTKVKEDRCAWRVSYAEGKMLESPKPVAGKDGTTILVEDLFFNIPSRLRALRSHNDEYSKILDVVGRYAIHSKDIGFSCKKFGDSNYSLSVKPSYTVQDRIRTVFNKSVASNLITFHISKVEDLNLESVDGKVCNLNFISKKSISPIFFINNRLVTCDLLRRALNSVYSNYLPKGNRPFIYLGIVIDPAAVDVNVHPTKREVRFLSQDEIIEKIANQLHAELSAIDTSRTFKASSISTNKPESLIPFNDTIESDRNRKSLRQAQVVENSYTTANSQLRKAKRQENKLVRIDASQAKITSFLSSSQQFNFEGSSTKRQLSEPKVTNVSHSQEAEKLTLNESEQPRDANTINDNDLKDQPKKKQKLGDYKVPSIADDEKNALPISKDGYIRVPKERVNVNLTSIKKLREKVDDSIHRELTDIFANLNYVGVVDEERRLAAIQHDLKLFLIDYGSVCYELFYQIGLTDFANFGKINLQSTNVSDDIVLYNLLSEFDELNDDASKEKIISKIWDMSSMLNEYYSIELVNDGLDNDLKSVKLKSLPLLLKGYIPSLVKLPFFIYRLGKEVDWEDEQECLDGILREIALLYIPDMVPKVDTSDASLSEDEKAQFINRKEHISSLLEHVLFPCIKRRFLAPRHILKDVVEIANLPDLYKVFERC
# Chain of Mlh1-Pms1 (P14242 whole entry, chain 2 of 2): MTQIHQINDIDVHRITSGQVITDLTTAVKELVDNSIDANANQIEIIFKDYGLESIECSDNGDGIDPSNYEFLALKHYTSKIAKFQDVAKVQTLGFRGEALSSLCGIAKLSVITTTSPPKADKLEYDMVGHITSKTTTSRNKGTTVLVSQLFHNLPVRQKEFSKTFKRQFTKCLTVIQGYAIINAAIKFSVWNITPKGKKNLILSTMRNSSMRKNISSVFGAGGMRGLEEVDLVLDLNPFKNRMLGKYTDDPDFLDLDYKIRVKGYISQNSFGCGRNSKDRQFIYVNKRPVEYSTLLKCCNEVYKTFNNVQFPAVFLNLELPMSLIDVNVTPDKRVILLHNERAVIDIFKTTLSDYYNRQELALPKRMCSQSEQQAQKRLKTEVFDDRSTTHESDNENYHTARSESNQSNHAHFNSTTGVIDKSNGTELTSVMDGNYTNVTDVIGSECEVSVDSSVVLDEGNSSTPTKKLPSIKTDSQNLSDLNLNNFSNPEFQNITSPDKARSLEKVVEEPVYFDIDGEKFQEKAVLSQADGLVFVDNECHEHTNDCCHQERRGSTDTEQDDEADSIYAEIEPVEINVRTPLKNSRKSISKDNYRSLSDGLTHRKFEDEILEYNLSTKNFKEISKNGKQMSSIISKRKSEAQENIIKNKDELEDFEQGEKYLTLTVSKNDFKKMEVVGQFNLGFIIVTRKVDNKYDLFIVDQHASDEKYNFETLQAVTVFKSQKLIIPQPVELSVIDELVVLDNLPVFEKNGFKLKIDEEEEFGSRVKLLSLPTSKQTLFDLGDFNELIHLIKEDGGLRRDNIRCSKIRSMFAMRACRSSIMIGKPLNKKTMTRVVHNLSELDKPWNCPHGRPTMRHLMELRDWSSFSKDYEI
# Description: Ensemble characterization of Mlh-Pms1 DNA-binding activity. […] Samples were loaded on 4% (w/v) non-denaturing polyacrylamide gels containing 0.5×TBE and electrophoresed at 130 V for 1 hour at RT. Gels were dried on 3mM Whatman paper and visualized by Phosphorlmaging. Analysis was done using ImageJ.
# Chain of LacI (P03023 whole entry): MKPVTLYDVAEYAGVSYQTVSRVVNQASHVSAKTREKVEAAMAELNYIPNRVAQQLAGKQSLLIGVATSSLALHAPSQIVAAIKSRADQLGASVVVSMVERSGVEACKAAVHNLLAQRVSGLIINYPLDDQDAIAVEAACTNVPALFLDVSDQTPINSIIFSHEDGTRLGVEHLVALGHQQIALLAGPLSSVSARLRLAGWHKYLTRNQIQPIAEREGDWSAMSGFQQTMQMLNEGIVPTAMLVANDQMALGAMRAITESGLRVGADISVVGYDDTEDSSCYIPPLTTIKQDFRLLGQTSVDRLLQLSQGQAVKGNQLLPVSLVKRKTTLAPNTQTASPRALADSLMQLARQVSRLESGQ
Molecule,Kd (EcoRI E111Q E111Q),Kd [1],also measured
EcoRI cognate site DNA,0.0025 pM,–,Kd (EcoRI): 6.7 pM
lambda PL promoter,–,100 pM,–
lambda PR promoter,–,10 pM,–
nonspecific DNA,4.8 pM,–,Kd (LacI): > 1000 pM
B1,–,–,binding result (Mlh1-Pms1): binds
